Results reported in article PMC4474781 (Environmental microbiology, 2015).

Biological target: T1, oxidoreductase FAD/NAD(P)-binding subunit (Dred_1685), His6-tagged, co-expressed with Dred_1686 (Desulfotomaculum reducens MI-1, UniProt A4J559 1-262)
T1 sequence (looked up): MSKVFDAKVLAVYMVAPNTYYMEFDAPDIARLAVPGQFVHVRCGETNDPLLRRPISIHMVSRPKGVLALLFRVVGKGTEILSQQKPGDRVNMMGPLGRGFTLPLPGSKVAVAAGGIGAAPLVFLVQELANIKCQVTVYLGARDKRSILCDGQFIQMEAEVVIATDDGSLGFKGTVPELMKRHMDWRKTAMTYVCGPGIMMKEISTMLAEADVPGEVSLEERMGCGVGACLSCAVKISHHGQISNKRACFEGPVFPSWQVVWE
Test: pull-down

B1: dihydroorotate dehydrogenase 1B (Dred_1686), untagged, co-expressed with His6-Dred_1685 (enzyme, Desulfotomaculum reducens MI-1, UniProt A4J560 1-304, looked up)
chain: MKLNLAVKIGQLDMINPVTTASGTFGYGQEYSPYVDLNQLGAIVVKGTTLEPREGNPTPRLVETPSGILNSIGLQNSGVDYLLEHYVPFFKKLQTNVIVNISGNTAEEYGQLAARLDEADGIAALEVNISCPNVKKGGMAFGGDFRTAAEVTKVVKNSTALPVIVKLSPNVTDIAEIARAVEGAGADGLSVINTLLGMAIDVRKRKPVLGNTMGGLSGPAVKPVALRAVWQVYKAVHIPIIGMGGIMNATDALEFILAGAQAVSVGTANFVNPYATKEIIQGMEKYLMENGIGDINELVGAAHL
- stoichiometry N: 1
